Assay results from the nanobody polyreactivity screen of Harvey et al. (2022).

Experiment: yeast display, Sf9 membrane polyspecificity reagent, FACS + sequencing; frameworks hold sequencing errors
How it was run: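 Genes from sorted yeast were amplified by colony PCR, read by MiSeq 2 × 250 sequencing and filtered on CDR length. These cells carried a synthetic nanobody library in Saccharomyces cerevisiae BJ5465 and were sorted by FACS into low and high (top ~1%) gates on anti-HA and streptavidin fluorescence. Polyreactivity is labelled according to the gate of origin.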

Sequence	polyreactivity (PSR sort gate)
QVQLVESGGGLVQAGGSLRFSCAASGFNFDQNAMGWYRQAPGQERELVAAITRRGGRTYYADSVKGRFTISRDNAKYTVYLQMNSLKPEDTAVYYCAALLPVHHRGYYWGQGTQVTVSS	high polyreactivity
QVQLVESGGGLVQAGGSLRFSCAASGFTIVGNTMGWYRQAPGKERELVASINTNGGSTYYADSVKGRFTISRDNAKNTVYLQMNSLKPEDTAVYYCAKDREDTYFEYEYDYWGQGTQVTVSS	low polyreactivity
QVQLVESGGGLVQAGGSLRFSCAASGGIFFRNAMGWYRQAPGKERELVAVISSGGSTYYADSVKGRFTISRDNAKNTVYLQMNSLKPEDTAVYYCAARRKRPVYTVTLHYPYNYWGQGTQVTVSS	high polyreactivity
QVQLVESGGGLVQAGGSLRFSCAASGGTFFLNVMGWYRPAPGKERELVAAITNSAGSTYYADSVKGRFTISRDNAKNTVYLQMNSLKPEDTAVYYCATDWSKVAGYTSYDYWGQGTQVTVSS	low polyreactivity
QVQLVESGGGLVQAGGSLRFSCAASGITFVYYARGWYRQAPGKERELVAAITRSGDSTYYADSVKGRFTISRDNAKNTVYLQMNSLKPEDTAVYYCAAESYYSTYQVEYYDWGQGTQVTVSS	high polyreactivity
QVQLVESGGGLVQAGGSLRFSCAASGRIFYPYAMGWYRQAHGKERELVAAIRRSGVDTYYADSVKGRFTISRDNAKNTVYLQMNSLKPEDTAVYYCAADPYWFFPHYDSWGQGTQVTVSS	low polyreactivity
QVQLVESGGGLVQAGGSLRFSCAASGSIFKGNVMGWYRQAPGKERELVAAITWSGGSTYYADSVKGRFTISRDNAKNTVSLQMNSLKPEDTAVYNCNTRWILGRRFYYWGQGTQVTVSS	high polyreactivity
QVQLVESGGGLVQAGGSLRFSCAASGSIFWSNAMGWYRQAPGKERELVAAITTSDGSTYYADSVKGRFTISRDNAKNTVYLQMNSLKPEDTAVYYCAADTYYVSYGYYYWGQGTQVTVSS	low polyreactivity
QVQLVESGGGLVQAGGSLRFSCAASGSSFGANTMGWYRQAPGKERELVAGITSGARTYYADSVKGRFTISRDNAKNTVYLQMNSLKPEDTAVYYCAAKYAWRRYGYWGQGTQVTVSS	high polyreactivity
QVQLVESGGGLVQAGGSLRFSCAASGSTFFGNTMGWYRQAPGKERELVAAISRRGGSTYYADSVKGRFTISRDNAKNTVYLQMNSLKPEDTAVYYCAKYYHSGGYTPGKYDYWGQGTQVTVSS	high polyreactivity
QVQLVESGGGLVQAGGSLRFSCAASGSTFGTYAMGWYRQAPGKERELVAAISWSGGSTYYADSVKGRFTISRDNAKNTVYLQMNSLKPEDPAVYWGQGTQVTVSS	low polyreactivity
QVQLVESGGGLVQAGGSLRFSCAASGSTFTRYAMGWYRQAPGKERELVAAISWSGGITYYADSVNGRFTISRDNAKNTVYLQMNSLKPEDTAVYYCAAKRRYTRGGYGVDYWGQGTQVTVSS	high polyreactivity
QVQLVESGGGLVQAGGSLRFSCAASGSTVYSYAMGWYRQAPGKERELVAAITRGGRTYYADSVKGRFTISRDNAKNTVYFKMNSLKPEDTAVYSCKVVTKFTGRGYDYWGQGSQVTVSS	high polyreactivity
QVQLVESGGGLVQAGGSLRFSCAASGSTYYYNAMGWDRQAPGKERELVASISWSGGSTRYADSVKGRFTISRDNAKNTVYLQMNSLKPEDTAVYYCAARYILSKYGSGVRYNYWGQGTQVSVSS	high polyreactivity
QVQLVESGGGLVQAGGSLRFSCAASRRTFANNAMGWYRQAPGKERELVAAISSGGNTYYADSVKGRFTISRDNAKNTVYLQMNSLKPEDTAVYYCAARYWIYRSEYDYWGQGTQVTVSS	high polyreactivity
QVQLVESGGGLVQAGGSLRFSCADSGRILSLYAMGWSRQAPGKERELVASINWSDGSTYYADSVKGRFTISRDKAKNTVYLQMNSLKPEDTAVYYCNVDVRSYVAGYDYWGQGTLVTVSS	low polyreactivity
QVQLVESGGGLVQAGGSLRFSCADSGRTFRYYAMGWDIQARGKERELVAAISRGGRTNYGDSVKGRFTISRDNAKNTVYIQMNSLKPVDTAVYYCAVGGYSYYTVGYDYWGQGTQVTVSS	high polyreactivity
QVQLVESGGGLVQAGGSLRFSCSASGSIFGYNTMGWYRPAPGKERQLVAAISKSGGSTYYADSVKGRFTISRDNAKNTVYLQMNSLKPEDSAVYYCATYAKQLSPYYYWGQGIQVTVSS	high polyreactivity
QVQLVESGGGLVQAGGSLRFSFAASGINFRFNAMGWYRQAPGKEREFVAAITYSGDSTYYADSVKGRFTISRDNAKNTVFLQMNSLKREDTAVYYCAADYYAISRRIFYYWGQGTQVTVSS	low polyreactivity
QVQLVESGGGLVQAGGSLRFSSAASGSIFQSYPMGLYRPAPGKERELVAAITRSGGRTYYADSVKGRFTISRDNAKNTVYLQMNSLKPEDTAVYYCAAFGWGYGYWGQGTQVTVSS	high polyreactivity
QVQLVESGGGLVQAGGSLRIRCAASGSIFGFYALGWSRHAPGKERELVASISWRGSRTYYADSVKGRFTISRDNAKNTVYLQMNSLKPEDSAVYYCNAVAYVSSPQYVSTATGYGYWGQGTQVTVSS	high polyreactivity
QVQLVESGGGLVQAGGSLRIRCAASGSTFSEYDMGWYRQAPGKERELVAAITTSGGSTYYADSVKGRFTISSDNAKNTVYLQMNSLKPEDTAVYYCAADSIGNYLLYDYWGQGTQVSVSS	low polyreactivity

Sequence	polyreactivity (PSR sort gate)
QVQLVESGGGLVQAGGSLRIRCAATGFIFLDYAMGWYRQAPGKERELVAAISSRGARTYYADSVKGRFTISRDNAKNTVYLQMNSLKPEDTAVYYCAARGPLDRYGYWGQGTQVTVSS	high polyreactivity
QVQLVESGGGLVQAGGSLRIRSAASGGIIWWNAMGWYIQAPGKERELVAAISRSGGTTYYADSVKGRFTISRDNEKNSVYLQMNSLKPEDTAVYFCAAQYRYPGFNYWGQGSQVTVSS	high polyreactivity
QVQLVESGGGLVQAGGSLRISCAASAITFEPYAMGWYRQAPGTEREFVAAISRSGGSTYYADSVKGRFTISRDNAKNTVYLQMNSLKPEDTAVYYCAADSWIGPDYGHDYRGQGTQVTVSS	high polyreactivity
QVQLVESGGGLVQAGGSLRISCAASARTLKRNAMGWYRQAPGKERELVAAISFRVTNTYYADSVKGRFTISRDNAKNTVYLQMYSLKPEDTAVYYCAVPDSRFYSPRRVSPHDYWGQGTQVTVSS	high polyreactivity
QVQLVESGGGLVQAGGSLRISCAASESIFPVYAMGWYRQAPGKERELVATITDGGGDTYYADSLKGRFTISRDNAKNTVYLQMNSLKPEDTAVYYCAARSMPEWSAYWYDYWGQGTQVTVSS	low polyreactivity
QVQLVESGGGLVQAGGSLRISCAASGATFYYYAMGWYRQAPGKERELVASTYYADSVKGRFSISRDNAKNTVYLQMKSLKPEDTAVYYCAKRFKATYEYDYWGQGTQVTVSS	low polyreactivity
QVQLVESGGGLVQAGGSLRISCAASGFIIYGYVMGWYRQAPGKERELVAAINSSSGRTYYADSVKGRFTISRDNAKNTVYLQMNSLKPEDTAVYYCAAYYYCSYDGTPYDYWGQGTQVTVSS	low polyreactivity
QVQLVESGGGLVQAGGSLRISCAASGFTFPLYAMGWYRQAPGKERELVAAINYRGSSTYYADSVKGRFTISRDNAKNTVYLHMNSLKPEYTAVYYCNAADPVWNQVYWGSNEYDYWGQGTQVTVSS	high polyreactivity
QVQLVESGGGLVQAGGSLRISCAASGFTFRSYSMGWYRQAPGKERELVAAITSTGGRTYYADSVKGRFTISRDNAKNTVYLQMNILNPEDTAVYYWAAGRKHFGPVHFGYWGQGTQVTVSW	high polyreactivity
QVQLVESGGGLVQAGGSLRISCAASGFTFRYNAMGWYRQAPVKERELVATISSRGGSTNYADSVKGRFTISRDNAKNTVYLLMNSLKPEDTAVYYCNNVRYRDLKRYDYWGQGTQVTVSS	high polyreactivity
QVQLVESGGGLVQAGGSLRISCAASGFTLSYYAMGWYRQAPGKERELVASISAIGGITYYADSVKGRFTISRDNAKNTVYLQMNSLKPEDTAVYYCARQGRRYRRFDSWGQGTQVTVSS	high polyreactivity
QVQLVESGGGLVQAGGSLRISCAASGFTVWGYAMGWYRQAPGKERELVAGITTRGGSTYYADSVKGRFTISRDNAKNTVYLQMNSLKPEDTAVYYCNVVSSTRTYRYDYWGQGTQVTVSS	high polyreactivity
QVQLVESGGGLVQAGGSLRISCAASGIILGYYPMGWYRQAPGKERELVAAINWSGASTYYADSVKGRFTISRDNAKNTVYLQMNCLKPEDTAVYDCNAVGYYYRGTGEYDYWGQGTQVTVSS	high polyreactivity
QVQLVESGGGLVQAGGSLRISCAASGITFDQNAMGWYRQAPGKEREFVGAITRGSSTNYADSVKGRFTISRDNAKNTVYLQMNSLKPEETAVYYCNADGYARFRTYYCRDTREYDYWGQGTQVTVSS	low polyreactivity
QVQLVESGGGLVQAGGSLRISCAASGITFLEYAMGWYRQAPGKERELVATINSGGSTNYADSVKGRFTISRDNAKNTVYLQMNSLKQEDNAVYYCSADYGSDYTKGDYWGQGTQVTVSS	low polyreactivity
QVQLVESGGGLVQAGGSLRISCAASGITFSYYAMGWYIQAPGKERELVAAINSGGGSTYYADSVKGRFTISRDNAKNTVYLQMNRLKPEDTAVYYFAARYRSRYDYYYDRDYWGQGTQVTVSS	low polyreactivity
QVQLVESGGGLVQAGGSLRISCAASGITFYANVMGWYRQAPGKARELVAAISARRGSTYYADSVKGRFTISRDNAKNTVYLQMNSLKPEDTAVYYCATREAYRQQGGYGYWGQGTQVTVSS	high polyreactivity
QVQLVESGGGLVQAGGSLRISCAASGITFYGYDMGWYRQAPGKERELVAAISKSGGSTHYADSVKGRFTISRDNAKNTVYLQMNSLKPEDTAVYYCAAAYWTRLRRMDYWGQGTQVTVSS	high polyreactivity
QVQLVESGGGLVQAGGSLRISCAASGLTFDRYAMGWYRQAPGKERELVAAISGSGSSTYYADSAKGRFTISRDNAKNTVYLQMNSLKPEDTAVYYCAADRDLGYDTRYNYWGQGTQVTVSS	low polyreactivity
QVQLVESGGGLVQAGGSLRISCAASGLTFRLYVMGWYRQAPGKERELVATISRSGGSTHYADSVKGRFTISRDNAKNTVYLQMNSLKPEDTAVYDCAARLFYFGSDFDYWGQGTQVTVSS	high polyreactivity
QVQLVESGGGLVQAGGSLRISCAASGMIFDWYTMGWYRQAPGKERELVAAISWRGGRTYYADSVKGRFTISRDNAQNTVYLQMNSLKPEDTAVYYCAAEGLFTGRVSRFADDHWGQGTQVTVSS	low polyreactivity
